B1: CPXM2 (parent)
chain: EILGCPLPDPNNYYHRRNEMTTTD

Variants of: B1
Test: protein stability index of a GFP-peptide fusion (GPS, HEK-293T) (PSI 1-6); higher = more stable
Settings: c terminus: a fixed tail appended
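Note: lentivirally expressed fusions sorted by FACS into six bins by GFP to DsRed ratio, PSI derived from sequencing read proportions per bin multiplied by bin number.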

Protein stability index, by site and new letter:
T21: F 2.77
R17: G 3.79, P 4.15, I 3.35, H 3.3, C 2.98, Y 2.85, A 3.78, L 2.7, S 3.88, M 3.8, W 2.63
E1: T 3.69, R 3.59, D 3.8, A 3.2, Y 2.29, L 2.63, K 3.18, M 2.23, W 1.86
N11: F 2.96, R 3.04, C 2.72, D 3.57, K 3.47, A 3.43, L 2.98, I 2.48, H 3.19
N12: E 3.85, S 3.09, P 3.45, Q 3.73, M 3.41, G 2.85, C 3.44, Y 3.35, F 2.5
G4: R 3.73, L 2.69, W 2.77, P 4.03, I 2.72, Y 3.13, S 3.57
L3: F 3.38, T 3.99, D 4.32, M 4.05, C 4.07, S 4.41, K 4.48, G 4.45, R 4.3
I2: P 4.87, G 5.13, K 4.54, L 3.34, A 4.51, E 4.91, Y 3.77, N 4.55, H 4.64, M 4.04, S 4.51
P8: H 2.82, G 3.8, Y 2.71, C 2.4, Q 3.56, S 3.17, I 3.14, R 3.56, D 4.22, V 3.01, F 2.61, M 2.47, L 2.66
Y14: E 4.59, H 3.84, C 4.04, L 3.68, P 4.41, K 3.88, Q 3.96, N 4.17, D 4.31, S 4.38, G 4.13, I 3.46, W 3.75
T22: L 2.69, H 3.51, F 2.77, R 3, I 2.81, C 3.15, W 1.85, M 3.28, Q 4.18, Y 3.31, P 3.22
E19: V 2.71, D 3.62, Y 2.6, T 2.95, N 3.3, G 3.59, F 2.62, Q 3.31, K 2.83
N18: C 3.59, E 4.01, D 4.23, P 3.21, K 3.57, H 3.37, A 3.3, G 3.77, I 2.79, Q 3.7, R 3.19, T 3.6, V 2.77, W 2.16, F 2.41
H15: M 3.23, I 3.52, C 2.71, V 3.1, Q 3.96, S 3.56, D 4.42, E 3.62, L 3.21, R 3.31
Y13: R 4.04, G 4.08, I 3.92, K 4.14, L 3.58, Q 4.06, W 2.9, P 4.12, N 3.89, A 4.21, F 3.35, H 4.18, E 4.29, C 3.77, V 4.03, T 4.35, S 3.86
P10: F 3.18, Q 3.4, T 3.6, D 3.88, G 3.95, K 3.41, A 3.45, L 2.8, M 3.44, S 3.42, V 3.46, R 3.49, C 3.26
